# Measured values as given in paper PMC9700037.
# Target: His6-tev-DPP9 (UniProt Q86TI2)
# Assay: SEC-MALS; co-eluting SEC fractions of FIIND, DPP9 and free UPA co-expressed in Sf9 and co-purified; 0.5-1.0 mg/ml, Superose 6 increase (10/300) GL, buffer A without glycerol
# Sequence of His6-tev-DPP9 (Q86TI2 whole entry): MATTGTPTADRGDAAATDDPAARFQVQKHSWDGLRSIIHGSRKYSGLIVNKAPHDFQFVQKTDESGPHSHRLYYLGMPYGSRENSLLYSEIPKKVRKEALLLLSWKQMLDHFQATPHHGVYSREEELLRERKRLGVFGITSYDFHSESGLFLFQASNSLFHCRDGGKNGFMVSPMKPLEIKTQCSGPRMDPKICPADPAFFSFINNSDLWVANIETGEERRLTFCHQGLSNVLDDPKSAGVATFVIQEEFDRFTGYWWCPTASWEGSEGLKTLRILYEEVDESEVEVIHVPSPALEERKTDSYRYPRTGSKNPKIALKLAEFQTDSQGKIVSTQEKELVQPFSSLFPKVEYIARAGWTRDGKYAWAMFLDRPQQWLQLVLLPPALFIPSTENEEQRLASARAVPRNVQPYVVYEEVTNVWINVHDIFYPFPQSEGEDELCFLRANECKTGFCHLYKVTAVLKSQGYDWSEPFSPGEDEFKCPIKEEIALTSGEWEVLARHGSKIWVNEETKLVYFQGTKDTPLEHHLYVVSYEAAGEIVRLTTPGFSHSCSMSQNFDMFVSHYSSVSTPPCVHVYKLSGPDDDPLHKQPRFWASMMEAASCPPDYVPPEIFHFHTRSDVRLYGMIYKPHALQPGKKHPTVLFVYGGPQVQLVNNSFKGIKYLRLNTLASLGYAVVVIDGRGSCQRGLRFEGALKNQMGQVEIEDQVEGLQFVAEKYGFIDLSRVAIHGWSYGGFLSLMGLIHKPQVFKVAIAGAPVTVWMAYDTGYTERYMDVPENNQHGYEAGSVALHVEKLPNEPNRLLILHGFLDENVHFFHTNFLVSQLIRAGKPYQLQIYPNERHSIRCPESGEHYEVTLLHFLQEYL
# Sequence of free UPA domain (from the SUMO-UPA construct) (domain or fragment) (Q9C000 whole entry, the tested form may be a part): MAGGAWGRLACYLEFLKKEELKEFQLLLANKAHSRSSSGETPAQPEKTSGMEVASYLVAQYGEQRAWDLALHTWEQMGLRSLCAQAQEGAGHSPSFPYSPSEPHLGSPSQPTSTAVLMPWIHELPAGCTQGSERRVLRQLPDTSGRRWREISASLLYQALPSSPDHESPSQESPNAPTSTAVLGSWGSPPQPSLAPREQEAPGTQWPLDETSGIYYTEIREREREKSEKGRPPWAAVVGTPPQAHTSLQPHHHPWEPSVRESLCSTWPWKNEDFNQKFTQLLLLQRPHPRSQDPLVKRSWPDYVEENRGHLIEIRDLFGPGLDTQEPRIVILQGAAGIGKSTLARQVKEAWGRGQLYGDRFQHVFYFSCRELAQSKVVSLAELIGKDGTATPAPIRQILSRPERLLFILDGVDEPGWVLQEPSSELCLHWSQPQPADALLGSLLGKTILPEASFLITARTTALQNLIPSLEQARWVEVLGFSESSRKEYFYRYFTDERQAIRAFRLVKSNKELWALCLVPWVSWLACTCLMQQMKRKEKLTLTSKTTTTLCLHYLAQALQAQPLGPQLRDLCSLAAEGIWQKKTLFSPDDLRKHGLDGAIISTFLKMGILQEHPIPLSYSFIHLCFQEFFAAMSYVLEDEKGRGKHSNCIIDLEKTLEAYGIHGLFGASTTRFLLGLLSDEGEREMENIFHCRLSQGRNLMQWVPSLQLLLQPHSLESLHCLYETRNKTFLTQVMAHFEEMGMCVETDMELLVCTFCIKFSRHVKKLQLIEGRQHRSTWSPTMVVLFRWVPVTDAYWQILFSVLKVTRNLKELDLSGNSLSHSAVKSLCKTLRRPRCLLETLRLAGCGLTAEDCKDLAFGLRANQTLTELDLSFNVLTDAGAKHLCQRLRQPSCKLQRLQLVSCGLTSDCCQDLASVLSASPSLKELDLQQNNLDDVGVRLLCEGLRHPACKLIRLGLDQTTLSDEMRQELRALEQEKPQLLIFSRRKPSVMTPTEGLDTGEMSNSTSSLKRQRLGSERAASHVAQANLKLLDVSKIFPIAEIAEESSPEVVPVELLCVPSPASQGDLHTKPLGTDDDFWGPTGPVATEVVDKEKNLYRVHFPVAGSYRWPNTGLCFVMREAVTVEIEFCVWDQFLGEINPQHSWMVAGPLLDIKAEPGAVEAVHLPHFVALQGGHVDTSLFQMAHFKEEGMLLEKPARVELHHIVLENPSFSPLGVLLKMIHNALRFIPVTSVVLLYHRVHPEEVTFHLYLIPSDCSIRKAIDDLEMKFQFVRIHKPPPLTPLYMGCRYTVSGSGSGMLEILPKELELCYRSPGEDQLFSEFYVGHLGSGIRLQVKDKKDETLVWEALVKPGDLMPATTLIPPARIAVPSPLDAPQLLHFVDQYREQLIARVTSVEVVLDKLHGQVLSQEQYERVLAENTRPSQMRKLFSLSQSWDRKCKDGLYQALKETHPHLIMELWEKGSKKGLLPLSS
substance,measurement,value
free UPA domain (from the SUMO-UPA construct) (domain or fragment),stoichiometry N (UPA per DPP9 dimer),1
